Reference: the supplement of paper PMC11246515
± gives the standard deviation of the averaged measurements.

Assay: total protein half-life in vivo (active degradation + dilution); higher = more stable protein
[1] = E. coli NCM3722 delta-clpP delta-lon delta-hslV, growth: N-lim chemostat, doubling time 6 h
[2] = E. coli NCM3722 delta-clpP, growth: N-lim chemostat, doubling time 6 h
[3] = E. coli NCM3722 delta-hslV, growth: N-lim chemostat, doubling time 6 h
[4] = E. coli NCM3722 delta-lon, growth: N-lim chemostat, doubling time 6 h
[5] = E. coli NCM3722 delta-smpB, growth: N-lim chemostat, doubling time 6 h
[6] = wild type E. coli NCM3722, growth: C-lim chemostat, doubling time 3 h
[7] = wild type E. coli NCM3722, growth: C-lim chemostat, doubling time 6 h
[8] = wild type E. coli NCM3722, growth: N-lim chemostat, doubling time 6 h
[9] = wild type E. coli NCM3722, growth: N-lim chemostat, doubling time 12 h
[10] = wild type E. coli NCM3722, growth: P-lim chemostat, doubling time 6 h
[11] = wild type E. coli NCM3722, growth: P-lim chemostat, doubling time 12 h
[12] = wild type E. coli NCM3722, growth: C-lim chemostat, doubling time 12 h

Sequence	total protein half-life in vivo [1] [h]	total protein half-life in vivo [2] [h]	total protein half-life in vivo [3] [h]	total protein half-life in vivo [4] [h]	total protein half-life in vivo [5] [h]	total protein half-life in vivo [6] [h]	total protein half-life in vivo [7] [h]	total protein half-life in vivo [8] [h]	total protein half-life in vivo [9] [h]	total protein half-life in vivo [10] [h]	total protein half-life in vivo [11] [h]	total protein half-life in vivo [12] [h]
MGQEKLYIEKELSWLSFNERVLQEAADKSNPLIERMRFLGIYSNNLDEFYKVRFAELKRRIIISEEQGSNSHSRHLLGKIQSRVLKADQEFDGLYNELLLEMARNQIFLINERQLSVNQQNWLRHYFKQYLRQHITPILINPDTDLVQFLKDDYTYLAVEIIRGDTIRYALLEIPSDKVPRFVNLPPEAPRRRKPMILLDNILRYCLDDIFKGFFDYDALNAYSMKMTRDAEYDLVHEMEASLMELMSSSLKQRLTAEPVRFVYQRDMPNALVEVLREKLTISRYDSIVPGGRYHNFKDFINFPNVGKANLVNKPLPRLRHIWFDKAQFRNGFDAIRERDVLLYYPYHTFEHVLELLRQASFDPSVLAIKINIYRVAKDSRIIDSMIHAAHNGKKVTVVVELQARFDEEANIHWAKRLTEAGVHVIFSAPGLKIHAKLFLISRKENGEVVRYAHIGTGNFNEKTARLYTDYSLLTADARITNEVRRVFNFIENPYRPVTFDYLMVSPQNSRRLLYEMVDREIANAQQGLPSGITLKLNNLVDKGLVDRLYAASSSGVPVNLLVRGMCSLIPNLEGISDNIRAISIVDRYLEHDRVYIFENGGDKKVYLSSADWMTRNIDYRIEVATPLLDPRLKQRVLDIIDILFSDTVKARYIDKELSNRYVPRGNRRKVRAQLAIYDYIKSLEQPE [P0A7B1]	6.92 ± 0.14	6.36 ± 0.29	6.79 ± 0.42	6.1 ± 0.063	6.038 ± 0.039	3.29 ± 0.35	6.27 ± 0.57	5.94 ± 0.53	13 ± 1.2	6.65 ± 0.23	13 ± 1.4	
MSKAGASLATCYGPVSADVIAKAENIRLLILDVDGVLSDGLIYMGNNGEELKAFNVRDGYGIRCALTSDIEVAIITGRKAKLVEDRCATLGITHLYQGQSNKLIAFSDLLEKLAIAPENVAYVGDDLIDWPVMEKVGLSVAVADAHPLLIPRADYVTRIAGGRGAVREVCDLLLLAQGKLDEAKGQSI [P0ABZ4]	6.03 ± 0.62	5.24 ± 0.48	4.75	4.98 ± 0.53	4.36 ± 0.21		4.33 ± 1.4	4.81	7.52 ± 0.99	6.58	13.2 ± 0.32	11.2 ± 2
MKRSISFRPTLLALVLATNFPVAHAAVPKDMLVIGKAADPQTLDPAVTIDNNDWTVTYPSYQRLVQYKTDGDKGSTDVEGDLASSWKASDDQKEWTFTLKDNAKFADGTPVTAEAVKLSFERLLKIGQGPAEAFPKDLKIDAPDEHTVKFTLSQPFAPFLYTLANDGASIINPAVLKEHAADDARGFLAQNTAGSGPFMLKSWQKGQQLVLVPNPHYPGNKPNFKRVSVKIIGESASRRLQLSRGDIDIADALPVDQLNALKQENKVNVAEYPSLRVTYLYLNNSKAPLNQADLRRAISWSTDYQGMVNGILSGNGKQMRGPIPEGMWGYDATAMQYNHDETKAKAEWDKVTSKPTSLTFLYSDNDPNWEPIALATQSSLNKLGIIVKLEKLANATMRDRVGKGDYDIAIGNWSPDFADPYMFMNYWFESDKKGLPGNRSFYENSEVDKLLRNALATTDQTQRTRDYQQAQKIVIDDAAYVYLFQKNYQLAMNKEVKGFVFNPMLEQVFNINTMSK	4.61 ± 0.059	5.72 ± 1.4	5 ± 0.15	5.74 ± 0.097	5.02 ± 0.13	2.73 ± 0.04	4.77 ± 0.049	5.26 ± 0.5	7.37 ± 0.29		12.42 ± 0.093	7.85 ± 0.62
MSTIVIFLAALLACSLLAGWLIKVRSRRRQLPWTNAFADAQTRKLTPEERSAVENYLESLTQVLQVPGPTGASAAPISLALNAESNNVMMLTHAITRYGISTDDPNKWRYYLDSVEVHLPPFWEQYINDENTVELIHTDSLPLVISLNGHTLQEYMQETRSYALQPVPSTQASIRGEESEQIELLNIRKETHEEYALSRPRGLREALLIVASFLMFFFCLITPDVFVPWLAGGALLLLGAGLWGLFAPPAKSSLREIHCLRGTPRRWGLFGENDQEQINNISLGIIDLVYPAHWQPYIAQDLGQQTDIDIYLDRHVVRQGRYLSLHDEVKNFPLQHWLRSTIIAAGSLLVLFMLLFWIPLDMPLKFTLSWMKGAQTIEATSVKQLADAGVRVGDTLRISGTGMCNIRTSGTWSAKTNSPFLPFDCSQIIWNDARSLPLPESELVNKATALTEAVNRQLHPKPEDESRVSASLRSAIQKSGMVLLDDFGDIVLKTADLCSAKDDCVRLKNALVNLGNSKDWDALVKRANAGKLDGVNVLLRPVSAESLDNLVATSTAPFITHETARAAQSLNSPAPGGFLIVSDEGSDFVDQPWPSASLYDYPPQEQWNAFQKLAQMLMHTPFNAEGIVTKIFTDANGTQHIGLHPIPDRSGLWRYLSTTLLLLTMLGSAIYNGVQAWRRYQRHRTRMMEIQAYYESCLNPQLITPSESLIE	7.278 ± 0.055	6.37 ± 0.32	6.48 ± 0.55	6.72 ± 0.7	5.73 ± 0.16	3.25 ± 0.17		6.06 ± 0.22	11.6 ± 1.6	6.84 ± 0.8		13.9 ± 1.9
MELSSLTAVSPVDGRYGDKVSALRGIFSEYGLLKFRVQVEVRWLQKLAAHAAIKEVPAFAADAIGYLDAIVASFSEEDAARIKTIERTTNHDVKAVEYFLKEKVAEIPELHAVSEFIHFACTSEDINNLSHALMLKTARDEVILPYWRQLIDGIKDLAVQYRDIPLLSRTHGQPATPSTIGKEMANVAYRMERQYRQLNQVEILGKINGAVGNYNAHIAAYPEVDWHQFSEEFVTSLGIQWNPYTTQIEPHDYIAELFDCVARFNTILIDFDRDVWGYIALNHFKQKTIAGEIGSSTMPHKVNPIDFENSEGNLGLSNAVLQHLASKLPVSRWQRDLTDSTVLRNLGVGIGYALIAYQSTLKGVSKLEVNRDHLLDELDHNWEVLAEPIQTVMRRYGIEKPYEKLKELTRGKRVDAEGMKQFIDGLALPEEEKARLKAMTPANYIGRAITMVDELK [P0AB89]	4.77 ± 0.41	5.24 ± 0.62	5.18 ± 0.54	5.11 ± 0.4	4.63 ± 0.12	3.01 ± 0.1	5.55 ± 0.32	4.64 ± 0.062	8.57 ± 0.16	5.79 ± 0.6	12.25 ± 0.033	10.5 ± 0.86
MVKLPPLSLYIHIPWCVQKCPYCDFNSHALKGEVPHDDYVQHLLNDLDNDVAYAQGREVKTIFIGGGTPSLLSGPAMQTLLDGVRARLPLAADAEITMEANPGTVEADRFVDYQRAGVNRISIGVQSFSEEKLKRLGRIHGPQEAKRAAKLASGLGLRSFNLDLMHGLPDQSLEEALGDLRQAIELNPPHLSWYQLTIEPNTLFGSRPPVLPDDDALWDIFEQGHQLLTAAGYQQYETSAYAKPGYQCQHNLNYWRFGDYIGIGCGAHGKVTFPDGRILRTTKTRHPRGFMQGRYLESQRDVEATDKPFEFFMNRFRLLEAAPRVEFIAYTGLCEDVIRPQLDEAIAQGYLTECADYWQITEHGKLFLNSLLELFLAE	4.14 ± 1.6	5.76 ± 2.5	4.32 ± 0.36	4.24 ± 0.52	3.734 ± 0.022	3.01 ± 0.05	4.82 ± 0.96	4.03 ± 0.08	6.81 ± 0.47	5.41 ± 0.25	10.4 ± 0.86	8.1 ± 1.6
MSKIIATLYAVMDKRPLRALSFVMALLLAGCMFWDPSRFAAKTSELEIWHGLLLMWAVCAGVIHGVGFRPQKVLWQGIFCPLLADIVLIVGLIFFFF [P0AAV0]				5.39								
